T1: human-cynomolgus monkey chimeric CD147 hCD147-mu3, on CHO-K1 cells (human, UniProt P35613 140-385)
T1 construct: also called hCD147-mu3_pcDNA3.1; CD147 with mu3 mutation
T1 chain: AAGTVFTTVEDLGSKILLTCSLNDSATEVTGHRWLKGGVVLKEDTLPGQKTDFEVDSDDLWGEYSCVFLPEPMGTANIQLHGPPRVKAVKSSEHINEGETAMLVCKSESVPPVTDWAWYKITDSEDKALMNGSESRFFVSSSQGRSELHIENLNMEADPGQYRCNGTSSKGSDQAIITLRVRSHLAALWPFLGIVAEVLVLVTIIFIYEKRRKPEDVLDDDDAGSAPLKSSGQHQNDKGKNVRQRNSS

T2: human CD147 variant 2 expressed on CHO-K1 cells (pcDNA-DEST40-CD147v2) (human, UniProt P35613 140-385)
T2 construct: also called CHO-K1-hCD147v2; human CD147 expressing CHO-K1 cells
T2 sequence: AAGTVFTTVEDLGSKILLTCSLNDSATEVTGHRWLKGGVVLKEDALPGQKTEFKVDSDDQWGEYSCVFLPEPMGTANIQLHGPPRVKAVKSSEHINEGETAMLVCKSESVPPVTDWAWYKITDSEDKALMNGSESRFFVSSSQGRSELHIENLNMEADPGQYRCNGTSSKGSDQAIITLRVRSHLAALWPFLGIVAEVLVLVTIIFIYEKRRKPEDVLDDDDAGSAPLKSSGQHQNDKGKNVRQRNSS


Legend:
[1] = molecular target: T1, human-cynomolgus monkey chimeric CD147 …; assay: flow cytometry, transfected CHO-K1 cells
Experimental: Samples with an increase in fluorescence signals of 10 times or more as compared with those in the control cells that were not treated with primary antibodies were determined to be binding positive (+). Samples with a partial increase in fluorescence signals of less than 10 times were determined to be binding slightly positive (±). Samples with no increase in fluorescence signals as compared with those in the control cells that were not treated with primary antibodies were determined to be binding negative (−).

[2] = molecular target: T2, human CD147 variant 2 expressed on …; assay: flow cytometry, CHO-K1 cells transfected with human CD147v2, antibody 10 µg/ml, anti-mouse IgG-FITC (Example 1)-8)
Text: In the graphs, the vertical axis represents the number of cells, and the horizontal axis represents the intensity of fluorescence signals.

binding result [1]	binding result [2]	Binder
no binding (tested: 10 µg/ml)		2P10F2 (antibody, V domains shown, also called 2P10F2 rat antibody) VH: EVQLQESGPGLVKPSQSLSLTCSVTGYSITSNYWGWIRKFPGNKMEWMGCITYSGGTSYNPSLKSRISITRDTSKNQFFLQLNSVTTEDTATYYCASSYTSGDVDYWGQGVMVTVSS VL: DIQMTQSPASLSASLGETVSIECLASEGISNSLAWYQQKPGKSPQLLIYGASSLQDGVPSRFSGSGSGTQYSLKISGMQPEDEGVYYCQQGYKYPFTFGSGTKLEIKR
no binding (tested: 10 µg/ml)	binds	LN22R8 (antibody, V domains shown, also called mouse anti-human CD147 antibody (LN22R8)) VH: QIQLVQSGPELKKPGETVKISCKASGYTFTNYGMNWVKQAPGKGLKWMGWINTYTGEPTYADDFKGRFAFSLETSASTAYLQINNLKNEDTATYFCARGGYGNYGAGAMDYWGQGTSVTVSS VL: DIQMTQSPSSLSASLGERVSLTCRASLEISGFLSWLQQKPDGTIKRLIYAASILDSGVPKRFSGSRSGSDYSLTISSLESEDFADYYCLQYASYPWTFGGGTKLEIKR

Reference: patent publication US20200362033A1 (Daiichi Sankyo, published 2020)
